# Assay results taken from patent publication US20090324603A1 (VAN ANDEL RESEARCH INSTITUTE, published 2009).
# B1: anti-Met Fab-Met-2 (Fab, V domains shown)
# VH: EVQLVESGGGVVQPGRSLRLSCAASGFTFSSYAMHWVRQAPGKGLEWVAVIWYDGSNRYYADSVKGRFTISRDNSKNTLYLQMNSLRAEDTAVYYCASQATEGLIWGQGTLVTVSP
# VL: ELQMTQSPSLLSASTGDRVTISCRASQSISSYLNWYQQKPGKAPKLLIYTRSSLQSGVPSRFSGSGSGTDFTLTISSLQPEDFATYYCQQSYSTPHTFGQGTKLEIKR
# B2: anti-Met scFv-S1 (scFv)
# scFv: ELQMTQSPSLLSASTGDRVTISCRASQSISSYLNWYQQKPGKAPKLLIYTRSSLQSGVPSRFSGSGSGTDFTLTISSLQPEDFATYYCQQSYSTPHTFGQGTKLEIKGGSSRSSSSGGGGSGGGGEVQLVESGGGVVQPGRSLRLSCAASGFTFSSYAMHWVRQAPGKGLEWVAVIWYDGSNRYYADSVKGRFTISRDNSKNTLYLQMNSLRAEDTAVYYCASQATEGLIWGQGTLVTVSP
# notes: also called scFv Si; S1 phage
# Key:
# [1] = target: human c-Met (HGF/SF receptor) on S114 and MKN45 cells (human, UniProt P08581 25-1390); assay: cell-based or functional assay
# [2] = target: T1, recombinant c-Met antigen (human, UniProt P08581 25-932, limits assumed); assay: non-competitive ELISA, Kd of scFv-S1 against Kd of the original Fab
# T1 construct: also called immobilized Met antigen; human Met antigen
# Protocol: (§1) The most commonly used formula was established by David Beatty and the equation was Kaff=(n−1)/(2{n[Ab′]ₜ−[Ab]ₜ}) (n=[Ag]/[Ag′]). This method utilized OD-50 of the sigmoid curve and obviated the need for affinity purification of antibody used as standard. Using serial dilutions of both antigen ([Ag], [Ag′]) and antibody (scFv antibody), the affinity constant (Kaff) was measured by non-competitive ELISA. Two sigmoid curves of optical density (OD) versus logarithms of antibody concentrations were estimated by SPSS 10.0 software. The maximum value of OD (OD-100) of each curve was computed respectively and OD-50, half of OD-100, was obtained. Then the concentrations of antibody corresponding to OD-50 on the curves, named [Ab]ₜ and [Ab′]ₜ were calculated. For [Ag′]=½[Ag], Kaff=1/{2[Ab′]ₜ−[Ab]ₜ}.
# [3] = target: T1, recombinant c-Met antigen; assay: non-competitive ELISA with serial dilutions of both Met and scFv (Beatty method)
# Protocol: as §1
# Sequence of human c-Met (HGF/SF receptor) on S114 and MKN45 cells (P08581 25-1390): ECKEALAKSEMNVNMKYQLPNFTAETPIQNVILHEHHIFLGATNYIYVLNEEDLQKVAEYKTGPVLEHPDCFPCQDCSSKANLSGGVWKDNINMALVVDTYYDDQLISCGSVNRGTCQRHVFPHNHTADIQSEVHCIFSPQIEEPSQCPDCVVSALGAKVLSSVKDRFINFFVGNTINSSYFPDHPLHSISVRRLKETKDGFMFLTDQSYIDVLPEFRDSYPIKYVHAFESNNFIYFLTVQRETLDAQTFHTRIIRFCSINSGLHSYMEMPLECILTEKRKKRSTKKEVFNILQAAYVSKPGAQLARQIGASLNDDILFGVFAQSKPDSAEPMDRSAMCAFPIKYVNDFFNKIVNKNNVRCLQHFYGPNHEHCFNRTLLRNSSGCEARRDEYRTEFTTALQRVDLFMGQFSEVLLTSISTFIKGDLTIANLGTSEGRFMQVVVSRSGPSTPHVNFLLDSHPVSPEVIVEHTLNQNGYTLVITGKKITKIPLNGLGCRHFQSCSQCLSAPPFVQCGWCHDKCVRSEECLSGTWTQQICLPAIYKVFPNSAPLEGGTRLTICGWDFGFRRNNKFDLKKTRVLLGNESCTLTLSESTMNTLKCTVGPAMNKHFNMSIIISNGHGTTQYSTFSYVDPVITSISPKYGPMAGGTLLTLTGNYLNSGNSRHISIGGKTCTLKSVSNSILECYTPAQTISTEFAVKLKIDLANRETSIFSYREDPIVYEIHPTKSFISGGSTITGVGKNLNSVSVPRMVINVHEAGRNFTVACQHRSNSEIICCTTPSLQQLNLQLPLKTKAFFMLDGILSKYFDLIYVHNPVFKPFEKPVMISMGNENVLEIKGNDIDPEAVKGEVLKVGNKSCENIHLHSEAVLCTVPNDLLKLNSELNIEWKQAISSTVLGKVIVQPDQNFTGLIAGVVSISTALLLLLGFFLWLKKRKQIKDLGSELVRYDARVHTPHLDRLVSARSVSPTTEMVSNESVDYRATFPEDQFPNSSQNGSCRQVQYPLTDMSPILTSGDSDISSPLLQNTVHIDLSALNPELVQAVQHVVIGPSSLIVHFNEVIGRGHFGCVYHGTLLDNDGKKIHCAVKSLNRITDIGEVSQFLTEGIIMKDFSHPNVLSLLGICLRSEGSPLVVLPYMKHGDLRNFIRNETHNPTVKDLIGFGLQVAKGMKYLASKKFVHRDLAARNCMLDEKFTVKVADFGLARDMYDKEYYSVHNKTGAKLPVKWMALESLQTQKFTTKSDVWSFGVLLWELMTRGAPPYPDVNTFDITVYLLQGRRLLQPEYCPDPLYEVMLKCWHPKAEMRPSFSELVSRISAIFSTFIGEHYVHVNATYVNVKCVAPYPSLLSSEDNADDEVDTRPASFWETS
# T1 sequence (P08581 25-932 limits assumed): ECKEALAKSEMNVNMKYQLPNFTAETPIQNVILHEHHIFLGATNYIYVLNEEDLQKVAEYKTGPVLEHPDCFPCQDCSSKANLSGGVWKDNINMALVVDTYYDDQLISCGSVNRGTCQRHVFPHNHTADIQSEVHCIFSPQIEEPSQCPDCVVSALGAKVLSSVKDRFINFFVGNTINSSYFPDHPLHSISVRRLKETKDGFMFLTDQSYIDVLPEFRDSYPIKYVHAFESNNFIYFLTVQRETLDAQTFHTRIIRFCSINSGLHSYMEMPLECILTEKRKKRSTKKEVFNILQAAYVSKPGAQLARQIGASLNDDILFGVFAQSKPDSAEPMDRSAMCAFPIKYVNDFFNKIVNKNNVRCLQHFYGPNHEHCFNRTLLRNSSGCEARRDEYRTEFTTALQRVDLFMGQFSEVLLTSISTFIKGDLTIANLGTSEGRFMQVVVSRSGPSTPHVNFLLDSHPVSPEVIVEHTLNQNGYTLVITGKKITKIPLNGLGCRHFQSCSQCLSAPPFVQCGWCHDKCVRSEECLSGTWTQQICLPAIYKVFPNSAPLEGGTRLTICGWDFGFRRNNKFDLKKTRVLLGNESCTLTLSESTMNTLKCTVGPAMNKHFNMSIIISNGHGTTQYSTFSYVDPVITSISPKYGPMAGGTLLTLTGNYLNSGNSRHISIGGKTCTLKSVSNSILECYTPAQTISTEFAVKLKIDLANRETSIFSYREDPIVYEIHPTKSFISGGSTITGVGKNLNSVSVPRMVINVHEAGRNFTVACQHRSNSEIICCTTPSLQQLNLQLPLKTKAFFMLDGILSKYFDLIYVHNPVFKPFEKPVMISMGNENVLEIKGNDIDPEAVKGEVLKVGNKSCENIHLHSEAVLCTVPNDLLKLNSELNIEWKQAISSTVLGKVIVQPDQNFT
Binder,"inhibition ratio of S114 cells incubated with 800 ng Fab and Hum-ZAP, 72 hrs [1] [%]","inhibition ratio of S114 cells incubated with 800 ng Fab and Hum-ZAP, 96 hrs [1] [%]",fold increase in affinity against the original Fab [2] [times],Kd [3] [nM]
B1,73.8,62.7,–,–
B2,–,–,117,51.5
